4 molecules from patent US12679878B2, “CRF2 receptor agonists and their use in therapy” (SANOFI, priority 2020, dated 2026) can be followed below.

Starred links: 1 amine or outer side, 2 acyl side, 3 side chain; linkers in the order of their positions; H or OH if unused. Non-standard residues stand in square brackets, D forms with d. Groups on a side chain read outwards from the residue. No end group written: not given here. *: point of attachment. γGlu = O=C(O)[C@H](CCC(=O)[*:2])N[*:1]; Palmitoyl = CCCCCCCCCCCCCCCC(=O)*; Aib = CC(C)(N)C(=O)O

Common to all, as to test: cell-based or functional assay
For assay [1], the target named is human corticotropin-releasing factor 2α (CRF2α receptor) (human), Q13324.
Sequence of human corticotropin-releasing factor 2α (CRF2α receptor) (human), Q13324 (Q13324 20-411): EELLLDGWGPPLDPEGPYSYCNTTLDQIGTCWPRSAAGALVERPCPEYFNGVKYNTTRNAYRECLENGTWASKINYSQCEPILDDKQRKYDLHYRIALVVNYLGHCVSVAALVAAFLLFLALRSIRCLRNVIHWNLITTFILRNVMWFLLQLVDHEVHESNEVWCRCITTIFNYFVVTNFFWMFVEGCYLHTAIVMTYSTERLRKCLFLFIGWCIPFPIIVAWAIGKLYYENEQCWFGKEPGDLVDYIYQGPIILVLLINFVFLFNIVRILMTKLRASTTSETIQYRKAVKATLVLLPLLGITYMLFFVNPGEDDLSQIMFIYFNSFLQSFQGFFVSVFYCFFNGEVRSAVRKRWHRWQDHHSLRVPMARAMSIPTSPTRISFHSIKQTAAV
The target in assay [2] is human corticotropin-releasing factor 2α receptor (CRF2α receptor) (human), Q13324.
Sequence of human corticotropin-releasing factor 2α receptor (CRF2α receptor) (human), Q13324 (Q13324 20-411): as above
Assay [3] concerns the target T1, CRF1R receptor (anti-target) (UniProt P34998 24-415, limits assumed).
T1 sequence (looked up): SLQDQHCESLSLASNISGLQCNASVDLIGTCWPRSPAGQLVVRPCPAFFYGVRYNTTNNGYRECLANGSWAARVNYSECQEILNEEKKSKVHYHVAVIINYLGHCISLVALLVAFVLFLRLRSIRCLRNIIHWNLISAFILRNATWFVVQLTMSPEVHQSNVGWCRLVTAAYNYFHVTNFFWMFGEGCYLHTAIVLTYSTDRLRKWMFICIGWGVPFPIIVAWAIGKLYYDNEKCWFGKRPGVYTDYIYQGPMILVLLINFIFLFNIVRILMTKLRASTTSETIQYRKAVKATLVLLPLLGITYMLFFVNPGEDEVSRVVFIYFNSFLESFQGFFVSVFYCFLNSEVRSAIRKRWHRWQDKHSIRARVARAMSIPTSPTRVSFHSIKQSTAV

B1: peptide of SEQ ID NO: 208 (peptide)
peptide: IVLSLD[dV]PIKLK([γGlu-Palmitoyl])QILLKQERQK[Aib]QRQQAEKNKQILAQV-NH2
modifications: N-terminus assumed
SMILES: CCCCCCCCCCCCCCCC(=O)N[C@@H](CCC(=O)NCCCC[C@H](NC(=O)[C@H](CC(C)C)NC(=O)[C@H](CCCCN)NC(=O)[C@@H](NC(=O)[C@@H]1CCCN1C(=O)[C@H](NC(=O)[C@H](CC(=O)O)NC(=O)[C@H](CC(C)C)NC(=O)[C@H](CO)NC(=O)[C@H](CC(C)C)NC(=O)[C@@H](NC(=O)[C@@H](N)[C@@H](C)CC)C(C)C)C(C)C)[C@@H](C)CC)C(=O)N[C@@H](CCC(N)=O)C(=O)N[C@H](C(=O)N[C@@H](CC(C)C)C(=O)N[C@@H](CC(C)C)C(=O)N[C@@H](CCCCN)C(=O)N[C@@H](CCC(N)=O)C(=O)N[C@@H](CCC(=O)O)C(=O)N[C@@H](CCCNC(=N)N)C(=O)N[C@@H](CCC(N)=O)C(=O)N[C@@H](CCCCN)C(=O)NC(C)(C)C(=O)N[C@@H](CCC(N)=O)C(=O)N[C@@H](CCCNC(=N)N)C(=O)N[C@@H](CCC(N)=O)C(=O)N[C@@H](CCC(N)=O)C(=O)N[C@@H](C)C(=O)N[C@@H](CCC(=O)O)C(=O)N[C@@H](CCCCN)C(=O)N[C@@H](CC(N)=O)C(=O)N[C@@H](CCCCN)C(=O)N[C@@H](CCC(N)=O)C(=O)N[C@H](C(=O)N[C@@H](CC(C)C)C(=O)N[C@@H](C)C(=O)N[C@@H](CCC(N)=O)C(=O)N[C@H](C(N)=O)C(C)C)[C@@H](C)CC)[C@@H](C)CC)C(=O)O
Molecule B1 came in with an EC50 [nM], 0% HSA (cAMP, HTRF) in assay [1] of 0.9 nM. The CRF2 EC50 (cAMP, HTRF) in assay [2] is 0.9 nM. In addition, in assay [3], the “CRF1/CRF2 ratio (of EC50)” value was 2 and the “CRF1 EC50 (cAMP, HTRF)” value amounted to 1.43 nM.

B2: peptide of SEQ ID NO: 204 (peptide)
peptide: IVLSLD[dV]PIKLK([γGlu-Palmitoyl])QILLKQERQK[Aib]QREQAEKNKQILAQV-NH2
modifications: N-terminus assumed
SMILES: CCCCCCCCCCCCCCCC(=O)N[C@@H](CCC(=O)NCCCC[C@H](NC(=O)[C@H](CC(C)C)NC(=O)[C@H](CCCCN)NC(=O)[C@@H](NC(=O)[C@@H]1CCCN1C(=O)[C@H](NC(=O)[C@H](CC(=O)O)NC(=O)[C@H](CC(C)C)NC(=O)[C@H](CO)NC(=O)[C@H](CC(C)C)NC(=O)[C@@H](NC(=O)[C@@H](N)[C@@H](C)CC)C(C)C)C(C)C)[C@@H](C)CC)C(=O)N[C@@H](CCC(N)=O)C(=O)N[C@H](C(=O)N[C@@H](CC(C)C)C(=O)N[C@@H](CC(C)C)C(=O)N[C@@H](CCCCN)C(=O)N[C@@H](CCC(N)=O)C(=O)N[C@@H](CCC(=O)O)C(=O)N[C@@H](CCCNC(=N)N)C(=O)N[C@@H](CCC(N)=O)C(=O)N[C@@H](CCCCN)C(=O)NC(C)(C)C(=O)N[C@@H](CCC(N)=O)C(=O)N[C@@H](CCCNC(=N)N)C(=O)N[C@@H](CCC(=O)O)C(=O)N[C@@H](CCC(N)=O)C(=O)N[C@@H](C)C(=O)N[C@@H](CCC(=O)O)C(=O)N[C@@H](CCCCN)C(=O)N[C@@H](CC(N)=O)C(=O)N[C@@H](CCCCN)C(=O)N[C@@H](CCC(N)=O)C(=O)N[C@H](C(=O)N[C@@H](CC(C)C)C(=O)N[C@@H](C)C(=O)N[C@@H](CCC(N)=O)C(=O)N[C@H](C(N)=O)C(C)C)[C@@H](C)CC)[C@@H](C)CC)C(=O)O
In turn, B2 yielded an EC50 [nM], 0% HSA (cAMP, HTRF) in assay [1] of 0.14 nM. Also, the CRF2 EC50 (cAMP, HTRF) in assay [2] was 0.14 nM. In assay [3], the “CRF1/CRF2 ratio (of EC50)” value turned out to be 3 and the “CRF1 EC50 (cAMP, HTRF)” value stood at 0.44 nM.

B3: peptide of SEQ ID NO: 207 (peptide)
peptide: IVLSLD[dV]PIGLK([γGlu-Palmitoyl])QILLKQERQKK[Aib]REQAETNKRILERV-NH2
modifications: N-terminus assumed
SMILES: CCCCCCCCCCCCCCCC(=O)N[C@@H](CCC(=O)NCCCC[C@H](NC(=O)[C@H](CC(C)C)NC(=O)CNC(=O)[C@@H](NC(=O)[C@@H]1CCCN1C(=O)[C@H](NC(=O)[C@H](CC(=O)O)NC(=O)[C@H](CC(C)C)NC(=O)[C@H](CO)NC(=O)[C@H](CC(C)C)NC(=O)[C@@H](NC(=O)[C@@H](N)[C@@H](C)CC)C(C)C)C(C)C)[C@@H](C)CC)C(=O)N[C@@H](CCC(N)=O)C(=O)N[C@H](C(=O)N[C@@H](CC(C)C)C(=O)N[C@@H](CC(C)C)C(=O)N[C@@H](CCCCN)C(=O)N[C@@H](CCC(N)=O)C(=O)N[C@@H](CCC(=O)O)C(=O)N[C@@H](CCCNC(=N)N)C(=O)N[C@@H](CCC(N)=O)C(=O)N[C@@H](CCCCN)C(=O)N[C@@H](CCCCN)C(=O)NC(C)(C)C(=O)N[C@@H](CCCNC(=N)N)C(=O)N[C@@H](CCC(=O)O)C(=O)N[C@@H](CCC(N)=O)C(=O)N[C@@H](C)C(=O)N[C@@H](CCC(=O)O)C(=O)N[C@H](C(=O)N[C@@H](CC(N)=O)C(=O)N[C@@H](CCCCN)C(=O)N[C@@H](CCCNC(=N)N)C(=O)N[C@H](C(=O)N[C@@H](CC(C)C)C(=O)N[C@@H](CCC(=O)O)C(=O)N[C@@H](CCCNC(=N)N)C(=O)N[C@H](C(N)=O)C(C)C)[C@@H](C)CC)[C@@H](C)O)[C@@H](C)CC)C(=O)O
In assay [1], B3 showed an EC50 [nM], 0% HSA (cAMP, HTRF) of 0.68 nM. The same molecule gave a CRF2 EC50 (cAMP, HTRF) in assay [2] of 0.68 nM. Also, in assay [3], the “CRF1/CRF2 ratio (of EC50)” value stood at 6 and the “CRF1 EC50 (cAMP, HTRF)” value worked out at 4.18 nM.

B4: peptide of SEQ ID NO: 209 (peptide)
peptide: IVLSLD[dV]PIKLK([γGlu-Palmitoyl])QILLKQERQKK[Aib]RQKAEKNKQILAQV-NH2
modifications: N-terminus assumed
SMILES: CCCCCCCCCCCCCCCC(=O)N[C@@H](CCC(=O)NCCCC[C@H](NC(=O)[C@H](CC(C)C)NC(=O)[C@H](CCCCN)NC(=O)[C@@H](NC(=O)[C@@H]1CCCN1C(=O)[C@H](NC(=O)[C@H](CC(=O)O)NC(=O)[C@H](CC(C)C)NC(=O)[C@H](CO)NC(=O)[C@H](CC(C)C)NC(=O)[C@@H](NC(=O)[C@@H](N)[C@@H](C)CC)C(C)C)C(C)C)[C@@H](C)CC)C(=O)N[C@@H](CCC(N)=O)C(=O)N[C@H](C(=O)N[C@@H](CC(C)C)C(=O)N[C@@H](CC(C)C)C(=O)N[C@@H](CCCCN)C(=O)N[C@@H](CCC(N)=O)C(=O)N[C@@H](CCC(=O)O)C(=O)N[C@@H](CCCNC(=N)N)C(=O)N[C@@H](CCC(N)=O)C(=O)N[C@@H](CCCCN)C(=O)N[C@@H](CCCCN)C(=O)NC(C)(C)C(=O)N[C@@H](CCCNC(=N)N)C(=O)N[C@@H](CCC(N)=O)C(=O)N[C@@H](CCCCN)C(=O)N[C@@H](C)C(=O)N[C@@H](CCC(=O)O)C(=O)N[C@@H](CCCCN)C(=O)N[C@@H](CC(N)=O)C(=O)N[C@@H](CCCCN)C(=O)N[C@@H](CCC(N)=O)C(=O)N[C@H](C(=O)N[C@@H](CC(C)C)C(=O)N[C@@H](C)C(=O)N[C@@H](CCC(N)=O)C(=O)N[C@H](C(N)=O)C(C)C)[C@@H](C)CC)[C@@H](C)CC)C(=O)O
As to B4, the EC50 [nM], 0% HSA (cAMP, HTRF) in assay [1] stood at 8.62 nM. Besides, the CRF2 EC50 (cAMP, HTRF) in assay [2] came to 8.62 nM. Moreover, in assay [3], the “CRF1/CRF2 ratio (of EC50)” value came to 3 and the “CRF1 EC50 (cAMP, HTRF)” value stood at 21.7 nM.
